This passage reports Ho/Con_2aR and He/Con_3a results from patent US20180155451A1 (published 2018).

The labels stand for the following.
T1: FcγRIIa R (human FcγRIIa, allotype R, Arg at position 131), extracellular domain with C-terminal His tag (human, UniProt P12318 34-217)
T1 construct: extracellular domain; expressed in FreeStyle293 cells; analyte in Biacore; also called 2aR; FcgRIIa R
T1 sequence (looked up): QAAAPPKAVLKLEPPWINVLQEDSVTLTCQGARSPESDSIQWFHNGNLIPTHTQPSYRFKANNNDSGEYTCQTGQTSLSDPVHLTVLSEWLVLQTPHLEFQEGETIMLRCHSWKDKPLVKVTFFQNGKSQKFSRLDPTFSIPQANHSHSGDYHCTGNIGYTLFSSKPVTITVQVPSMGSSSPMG

B1: GpH7-B3 variant Y296_10E/GpL16-k0 (antibody, human IgG1, kappa)
heavy: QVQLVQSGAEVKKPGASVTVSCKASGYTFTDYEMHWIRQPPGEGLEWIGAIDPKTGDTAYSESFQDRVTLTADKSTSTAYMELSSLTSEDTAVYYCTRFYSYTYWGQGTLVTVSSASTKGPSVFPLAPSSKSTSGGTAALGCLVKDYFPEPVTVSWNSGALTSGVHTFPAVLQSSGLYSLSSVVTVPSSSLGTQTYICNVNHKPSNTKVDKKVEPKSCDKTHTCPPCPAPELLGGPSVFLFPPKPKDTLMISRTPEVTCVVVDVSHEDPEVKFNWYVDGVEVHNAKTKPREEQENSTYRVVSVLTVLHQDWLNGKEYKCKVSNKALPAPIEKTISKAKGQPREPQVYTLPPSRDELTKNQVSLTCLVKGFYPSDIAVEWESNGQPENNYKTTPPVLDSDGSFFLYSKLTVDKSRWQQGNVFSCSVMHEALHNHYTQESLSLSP
light: DIVMTQSPLSLPVTPGEPASISCQASESLVHSNRNTYLHWYLQKPGQSPQLLIYKVSNRFSGVPDRFSGSGSGTDFTLKISRVEAEDVGVYYCSQNTHVPPTFGQGTKVEIERTVAAPSVFIFPPSDEQLKSGTASVVCLLNNFYPREAKVQWKVDNALQSGNSQESVTEQDSKDSTYSLSSTLTLSKADYEKHKVYACEVTHQGLSSPVTKSFNRGEC
notes: homodimerized antibody, mutation in both H chains; also called Ho Ab
B2: GpH7-B3 variant Y296_13S/GpL16-k0 (antibody, human IgG1, kappa)
heavy: not shown
light: DIVMTQSPLSLPVTPGEPASISCQASESLVHSNRNTYLHWYLQKPGQSPQLLIYKVSNRFSGVPDRFSGSGSGTDFTLKISRVEAEDVGVYYCSQNTHVPPTFGQGTKVEIERTVAAPSVFIFPPSDEQLKSGTASVVCLLNNFYPREAKVQWKVDNALQSGNSQESVTEQDSKDSTYSLSSTLTLSKADYEKHKVYACEVTHQGLSSPVTKSFNRGEC
notes: as for B1
B3: GpH7-B3 variant Y296_19Q/GpL16-k0 (antibody, human IgG1, kappa)
heavy: not shown
light: DIVMTQSPLSLPVTPGEPASISCQASESLVHSNRNTYLHWYLQKPGQSPQLLIYKVSNRFSGVPDRFSGSGSGTDFTLKISRVEAEDVGVYYCSQNTHVPPTFGQGTKVEIERTVAAPSVFIFPPSDEQLKSGTASVVCLLNNFYPREAKVQWKVDNALQSGNSQESVTEQDSKDSTYSLSSTLTLSKADYEKHKVYACEVTHQGLSSPVTKSFNRGEC
notes: as for B1
B4: GpH7-B3 variant T335_20W/GpL16-k0 (antibody, human IgG1, kappa)
heavy: not shown
light: DIVMTQSPLSLPVTPGEPASISCQASESLVHSNRNTYLHWYLQKPGQSPQLLIYKVSNRFSGVPDRFSGSGSGTDFTLKISRVEAEDVGVYYCSQNTHVPPTFGQGTKVEIERTVAAPSVFIFPPSDEQLKSGTASVVCLLNNFYPREAKVQWKVDNALQSGNSQESVTEQDSKDSTYSLSSTLTLSKADYEKHKVYACEVTHQGLSSPVTKSFNRGEC
notes: as for B1
B5: GpH7-B3 variant Y296_16H/GpL16-k0 (antibody, human IgG1, kappa)
heavy: not shown
light: DIVMTQSPLSLPVTPGEPASISCQASESLVHSNRNTYLHWYLQKPGQSPQLLIYKVSNRFSGVPDRFSGSGSGTDFTLKISRVEAEDVGVYYCSQNTHVPPTFGQGTKVEIERTVAAPSVFIFPPSDEQLKSGTASVVCLLNNFYPREAKVQWKVDNALQSGNSQESVTEQDSKDSTYSLSSTLTLSKADYEKHKVYACEVTHQGLSSPVTKSFNRGEC
notes: as for B1
B6: GpH7-B3 variant Y296_07I/GpL16-k0 (antibody, human IgG1, kappa)
heavy: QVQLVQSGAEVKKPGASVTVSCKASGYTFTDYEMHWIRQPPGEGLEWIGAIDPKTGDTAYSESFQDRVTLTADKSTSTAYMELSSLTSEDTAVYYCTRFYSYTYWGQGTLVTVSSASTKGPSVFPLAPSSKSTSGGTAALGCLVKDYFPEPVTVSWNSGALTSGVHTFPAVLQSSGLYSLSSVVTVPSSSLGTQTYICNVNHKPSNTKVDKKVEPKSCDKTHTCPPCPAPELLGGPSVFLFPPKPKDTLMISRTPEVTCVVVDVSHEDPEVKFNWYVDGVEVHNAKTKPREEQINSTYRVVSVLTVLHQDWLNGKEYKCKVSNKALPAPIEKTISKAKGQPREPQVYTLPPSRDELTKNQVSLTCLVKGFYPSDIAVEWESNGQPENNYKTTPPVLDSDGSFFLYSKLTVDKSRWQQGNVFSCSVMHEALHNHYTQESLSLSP
light: DIVMTQSPLSLPVTPGEPASISCQASESLVHSNRNTYLHWYLQKPGQSPQLLIYKVSNRFSGVPDRFSGSGSGTDFTLKISRVEAEDVGVYYCSQNTHVPPTFGQGTKVEIERTVAAPSVFIFPPSDEQLKSGTASVVCLLNNFYPREAKVQWKVDNALQSGNSQESVTEQDSKDSTYSLSSTLTLSKADYEKHKVYACEVTHQGLSSPVTKSFNRGEC
notes: as for B1
B7: GpH7-B3 variant Y296_06M/GpL16-k0 (antibody, human IgG1, kappa)
heavy: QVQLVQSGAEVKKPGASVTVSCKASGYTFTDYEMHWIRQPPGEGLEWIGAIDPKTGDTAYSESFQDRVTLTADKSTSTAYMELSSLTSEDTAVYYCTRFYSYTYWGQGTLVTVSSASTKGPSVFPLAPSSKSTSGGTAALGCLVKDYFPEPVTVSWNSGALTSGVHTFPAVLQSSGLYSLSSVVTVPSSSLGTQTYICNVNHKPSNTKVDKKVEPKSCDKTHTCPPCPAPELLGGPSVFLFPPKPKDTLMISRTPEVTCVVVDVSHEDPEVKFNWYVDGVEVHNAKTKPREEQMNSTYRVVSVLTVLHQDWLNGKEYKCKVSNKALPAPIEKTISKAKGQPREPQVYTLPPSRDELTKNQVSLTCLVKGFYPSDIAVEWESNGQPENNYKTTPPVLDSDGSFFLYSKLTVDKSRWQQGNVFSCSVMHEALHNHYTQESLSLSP
light: DIVMTQSPLSLPVTPGEPASISCQASESLVHSNRNTYLHWYLQKPGQSPQLLIYKVSNRFSGVPDRFSGSGSGTDFTLKISRVEAEDVGVYYCSQNTHVPPTFGQGTKVEIERTVAAPSVFIFPPSDEQLKSGTASVVCLLNNFYPREAKVQWKVDNALQSGNSQESVTEQDSKDSTYSLSSTLTLSKADYEKHKVYACEVTHQGLSSPVTKSFNRGEC
notes: as for B1
B8: GpH7-B3 variant Y296_14T/GpL16-k0 (antibody, human IgG1, kappa)
heavy: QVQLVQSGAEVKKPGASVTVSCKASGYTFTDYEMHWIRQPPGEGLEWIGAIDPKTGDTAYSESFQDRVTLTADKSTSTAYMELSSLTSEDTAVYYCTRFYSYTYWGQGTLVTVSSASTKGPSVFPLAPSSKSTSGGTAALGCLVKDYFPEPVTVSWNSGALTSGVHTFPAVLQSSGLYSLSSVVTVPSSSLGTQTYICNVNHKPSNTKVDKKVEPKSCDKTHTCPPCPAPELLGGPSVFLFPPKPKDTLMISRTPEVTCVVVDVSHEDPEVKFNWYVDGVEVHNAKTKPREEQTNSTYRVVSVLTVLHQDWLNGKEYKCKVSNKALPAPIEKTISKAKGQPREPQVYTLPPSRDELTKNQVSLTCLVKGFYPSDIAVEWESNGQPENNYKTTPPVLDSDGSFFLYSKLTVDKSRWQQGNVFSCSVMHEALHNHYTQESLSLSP
light: DIVMTQSPLSLPVTPGEPASISCQASESLVHSNRNTYLHWYLQKPGQSPQLLIYKVSNRFSGVPDRFSGSGSGTDFTLKISRVEAEDVGVYYCSQNTHVPPTFGQGTKVEIERTVAAPSVFIFPPSDEQLKSGTASVVCLLNNFYPREAKVQWKVDNALQSGNSQESVTEQDSKDSTYSLSSTLTLSKADYEKHKVYACEVTHQGLSSPVTKSFNRGEC
notes: as for B1
B9: GpH7-B3 variant V266_06M/GpL16-k0 (antibody, human IgG1, kappa)
heavy: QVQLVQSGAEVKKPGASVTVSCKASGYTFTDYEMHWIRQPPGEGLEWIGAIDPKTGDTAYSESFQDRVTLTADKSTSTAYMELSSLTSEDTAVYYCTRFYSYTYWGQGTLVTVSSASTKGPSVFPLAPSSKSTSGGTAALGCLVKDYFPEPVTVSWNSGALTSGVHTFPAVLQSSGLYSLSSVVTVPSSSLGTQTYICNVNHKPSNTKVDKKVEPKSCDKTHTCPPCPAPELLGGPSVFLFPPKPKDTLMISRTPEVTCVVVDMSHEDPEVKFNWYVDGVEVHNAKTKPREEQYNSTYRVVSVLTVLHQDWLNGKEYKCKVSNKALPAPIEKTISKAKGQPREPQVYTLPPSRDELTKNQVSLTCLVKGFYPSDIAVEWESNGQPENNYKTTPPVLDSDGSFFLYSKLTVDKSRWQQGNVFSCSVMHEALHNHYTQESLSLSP
light: DIVMTQSPLSLPVTPGEPASISCQASESLVHSNRNTYLHWYLQKPGQSPQLLIYKVSNRFSGVPDRFSGSGSGTDFTLKISRVEAEDVGVYYCSQNTHVPPTFGQGTKVEIERTVAAPSVFIFPPSDEQLKSGTASVVCLLNNFYPREAKVQWKVDNALQSGNSQESVTEQDSKDSTYSLSSTLTLSKADYEKHKVYACEVTHQGLSSPVTKSFNRGEC
notes: as for B1
B10: GpH7-B3 variant Y296_20W/GpL16-k0 (antibody, human IgG1, kappa)
heavy: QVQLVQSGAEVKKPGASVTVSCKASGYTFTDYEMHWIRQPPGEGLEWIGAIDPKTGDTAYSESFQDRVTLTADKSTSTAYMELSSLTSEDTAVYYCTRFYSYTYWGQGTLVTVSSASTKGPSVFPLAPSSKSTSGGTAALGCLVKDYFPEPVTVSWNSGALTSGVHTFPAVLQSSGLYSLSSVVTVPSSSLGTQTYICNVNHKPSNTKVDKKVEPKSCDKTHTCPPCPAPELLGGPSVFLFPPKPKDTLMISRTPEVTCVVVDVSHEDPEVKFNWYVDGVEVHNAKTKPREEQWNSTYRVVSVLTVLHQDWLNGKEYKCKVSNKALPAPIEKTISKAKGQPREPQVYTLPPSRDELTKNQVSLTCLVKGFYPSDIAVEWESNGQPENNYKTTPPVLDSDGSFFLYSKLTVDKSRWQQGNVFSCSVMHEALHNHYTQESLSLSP
light: DIVMTQSPLSLPVTPGEPASISCQASESLVHSNRNTYLHWYLQKPGQSPQLLIYKVSNRFSGVPDRFSGSGSGTDFTLKISRVEAEDVGVYYCSQNTHVPPTFGQGTKVEIERTVAAPSVFIFPPSDEQLKSGTASVVCLLNNFYPREAKVQWKVDNALQSGNSQESVTEQDSKDSTYSLSSTLTLSKADYEKHKVYACEVTHQGLSSPVTKSFNRGEC
notes: as for B1
B11: GpH7-B3 variant Y296_04F/GpL16-k0 (antibody, human IgG1, kappa)
heavy: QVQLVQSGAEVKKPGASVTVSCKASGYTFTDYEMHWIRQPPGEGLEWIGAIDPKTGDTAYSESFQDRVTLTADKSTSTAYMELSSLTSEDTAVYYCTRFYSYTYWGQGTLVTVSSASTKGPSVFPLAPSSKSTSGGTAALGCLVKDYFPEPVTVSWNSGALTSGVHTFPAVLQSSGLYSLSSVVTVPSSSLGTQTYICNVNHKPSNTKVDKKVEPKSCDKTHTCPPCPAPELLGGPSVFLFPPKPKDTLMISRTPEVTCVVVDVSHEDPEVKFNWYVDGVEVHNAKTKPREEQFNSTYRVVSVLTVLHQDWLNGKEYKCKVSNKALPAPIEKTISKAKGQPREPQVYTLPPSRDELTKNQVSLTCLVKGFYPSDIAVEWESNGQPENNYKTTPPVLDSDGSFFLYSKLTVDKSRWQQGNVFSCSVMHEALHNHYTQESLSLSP
light: DIVMTQSPLSLPVTPGEPASISCQASESLVHSNRNTYLHWYLQKPGQSPQLLIYKVSNRFSGVPDRFSGSGSGTDFTLKISRVEAEDVGVYYCSQNTHVPPTFGQGTKVEIERTVAAPSVFIFPPSDEQLKSGTASVVCLLNNFYPREAKVQWKVDNALQSGNSQESVTEQDSKDSTYSLSSTLTLSKADYEKHKVYACEVTHQGLSSPVTKSFNRGEC
notes: as for B1
B12: GpH7-B3 variant Y296_18N/GpL16-k0 (antibody, human IgG1, kappa)
heavy: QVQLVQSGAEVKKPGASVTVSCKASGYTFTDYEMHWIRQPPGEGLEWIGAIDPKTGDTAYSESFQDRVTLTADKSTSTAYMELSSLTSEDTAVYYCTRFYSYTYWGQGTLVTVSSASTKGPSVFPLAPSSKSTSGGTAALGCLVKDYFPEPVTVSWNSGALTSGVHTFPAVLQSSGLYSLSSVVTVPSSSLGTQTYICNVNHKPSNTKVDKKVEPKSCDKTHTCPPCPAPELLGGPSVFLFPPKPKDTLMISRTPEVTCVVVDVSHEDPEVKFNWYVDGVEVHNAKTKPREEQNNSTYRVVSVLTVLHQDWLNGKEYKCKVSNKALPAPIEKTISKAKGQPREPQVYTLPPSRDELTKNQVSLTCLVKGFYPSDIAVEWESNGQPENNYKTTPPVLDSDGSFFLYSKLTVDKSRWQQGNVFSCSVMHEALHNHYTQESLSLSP
light: DIVMTQSPLSLPVTPGEPASISCQASESLVHSNRNTYLHWYLQKPGQSPQLLIYKVSNRFSGVPDRFSGSGSGTDFTLKISRVEAEDVGVYYCSQNTHVPPTFGQGTKVEIERTVAAPSVFIFPPSDEQLKSGTASVVCLLNNFYPREAKVQWKVDNALQSGNSQESVTEQDSKDSTYSLSSTLTLSKADYEKHKVYACEVTHQGLSSPVTKSFNRGEC
notes: as for B1
B13: GpH7-B3 variant Y296_09D/GpL16-k0 (antibody, human IgG1, kappa)
heavy: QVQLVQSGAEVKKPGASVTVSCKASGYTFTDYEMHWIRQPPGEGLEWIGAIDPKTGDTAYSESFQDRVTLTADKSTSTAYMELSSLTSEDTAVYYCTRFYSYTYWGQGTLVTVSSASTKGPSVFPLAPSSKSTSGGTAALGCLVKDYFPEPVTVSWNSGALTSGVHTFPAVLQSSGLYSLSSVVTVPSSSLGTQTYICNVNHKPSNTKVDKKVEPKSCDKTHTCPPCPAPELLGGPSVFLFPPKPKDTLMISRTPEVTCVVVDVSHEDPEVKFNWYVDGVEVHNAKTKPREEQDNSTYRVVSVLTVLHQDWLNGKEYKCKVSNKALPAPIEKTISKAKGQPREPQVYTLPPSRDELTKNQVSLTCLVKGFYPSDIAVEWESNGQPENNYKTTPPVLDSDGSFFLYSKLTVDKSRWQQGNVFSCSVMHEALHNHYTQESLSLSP
light: DIVMTQSPLSLPVTPGEPASISCQASESLVHSNRNTYLHWYLQKPGQSPQLLIYKVSNRFSGVPDRFSGSGSGTDFTLKISRVEAEDVGVYYCSQNTHVPPTFGQGTKVEIERTVAAPSVFIFPPSDEQLKSGTASVVCLLNNFYPREAKVQWKVDNALQSGNSQESVTEQDSKDSTYSLSSTLTLSKADYEKHKVYACEVTHQGLSSPVTKSFNRGEC
notes: as for B1
B14: GpH7-B3 variant Y300_18N/GpL16-k0 (antibody, human IgG1, kappa)
heavy: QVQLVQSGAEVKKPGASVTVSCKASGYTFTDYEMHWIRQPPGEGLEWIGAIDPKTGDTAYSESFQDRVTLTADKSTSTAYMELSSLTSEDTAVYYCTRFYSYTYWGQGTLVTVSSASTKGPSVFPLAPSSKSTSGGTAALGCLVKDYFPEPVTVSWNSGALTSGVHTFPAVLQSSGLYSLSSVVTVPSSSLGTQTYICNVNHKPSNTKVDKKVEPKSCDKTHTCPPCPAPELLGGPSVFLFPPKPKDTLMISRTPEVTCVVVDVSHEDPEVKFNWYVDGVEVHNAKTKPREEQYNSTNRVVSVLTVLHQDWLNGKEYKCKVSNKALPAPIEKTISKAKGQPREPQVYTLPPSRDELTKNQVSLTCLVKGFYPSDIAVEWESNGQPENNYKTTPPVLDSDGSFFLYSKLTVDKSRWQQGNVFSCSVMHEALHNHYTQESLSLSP
light: DIVMTQSPLSLPVTPGEPASISCQASESLVHSNRNTYLHWYLQKPGQSPQLLIYKVSNRFSGVPDRFSGSGSGTDFTLKISRVEAEDVGVYYCSQNTHVPPTFGQGTKVEIERTVAAPSVFIFPPSDEQLKSGTASVVCLLNNFYPREAKVQWKVDNALQSGNSQESVTEQDSKDSTYSLSSTLTLSKADYEKHKVYACEVTHQGLSSPVTKSFNRGEC
notes: as for B1
B15: GpH7-A5/GpH7-B3 variant A330_05P/GpL16-k0 (antibody, human IgG1, kappa)
heavy 1: not shown
heavy 2: not shown
light: DIVMTQSPLSLPVTPGEPASISCQASESLVHSNRNTYLHWYLQKPGQSPQLLIYKVSNRFSGVPDRFSGSGSGTDFTLKISRVEAEDVGVYYCSQNTHVPPTFGQGTKVEIERTVAAPSVFIFPPSDEQLKSGTASVVCLLNNFYPREAKVQWKVDNALQSGNSQESVTEQDSKDSTYSLSSTLTLSKADYEKHKVYACEVTHQGLSSPVTKSFNRGEC
notes: also called He Ab A330_05P
B16: GpH7-A5/GpH7-B3 variant E333_03V/GpL16-k0 (antibody, human IgG1, kappa)
heavy 1: not shown
heavy 2: not shown
light: DIVMTQSPLSLPVTPGEPASISCQASESLVHSNRNTYLHWYLQKPGQSPQLLIYKVSNRFSGVPDRFSGSGSGTDFTLKISRVEAEDVGVYYCSQNTHVPPTFGQGTKVEIERTVAAPSVFIFPPSDEQLKSGTASVVCLLNNFYPREAKVQWKVDNALQSGNSQESVTEQDSKDSTYSLSSTLTLSKADYEKHKVYACEVTHQGLSSPVTKSFNRGEC
notes: also called He Ab E333_03V
B17: GpH7-A5/GpH7-B3 variant E333_02A/GpL16-k0 (antibody, human IgG1, kappa)
heavy 1: not shown
heavy 2: not shown
light: DIVMTQSPLSLPVTPGEPASISCQASESLVHSNRNTYLHWYLQKPGQSPQLLIYKVSNRFSGVPDRFSGSGSGTDFTLKISRVEAEDVGVYYCSQNTHVPPTFGQGTKVEIERTVAAPSVFIFPPSDEQLKSGTASVVCLLNNFYPREAKVQWKVDNALQSGNSQESVTEQDSKDSTYSLSSTLTLSKADYEKHKVYACEVTHQGLSSPVTKSFNRGEC
notes: also called He Ab E333_02A
B18: GpH7-A5/GpH7-B3 variant E333_04F/GpL16-k0 (antibody, human IgG1, kappa)
heavy 1: not shown
heavy 2: not shown
light: DIVMTQSPLSLPVTPGEPASISCQASESLVHSNRNTYLHWYLQKPGQSPQLLIYKVSNRFSGVPDRFSGSGSGTDFTLKISRVEAEDVGVYYCSQNTHVPPTFGQGTKVEIERTVAAPSVFIFPPSDEQLKSGTASVVCLLNNFYPREAKVQWKVDNALQSGNSQESVTEQDSKDSTYSLSSTLTLSKADYEKHKVYACEVTHQGLSSPVTKSFNRGEC
notes: also called He Ab E333_04F
B19: GpH7-A5/GpH7-B3 variant A330_07I/GpL16-k0 (antibody, human IgG1, kappa)
heavy 1: not shown
heavy 2: not shown
light: DIVMTQSPLSLPVTPGEPASISCQASESLVHSNRNTYLHWYLQKPGQSPQLLIYKVSNRFSGVPDRFSGSGSGTDFTLKISRVEAEDVGVYYCSQNTHVPPTFGQGTKVEIERTVAAPSVFIFPPSDEQLKSGTASVVCLLNNFYPREAKVQWKVDNALQSGNSQESVTEQDSKDSTYSLSSTLTLSKADYEKHKVYACEVTHQGLSSPVTKSFNRGEC
notes: also called He Ab A330_07I

T2 sequence (P08637 17-208): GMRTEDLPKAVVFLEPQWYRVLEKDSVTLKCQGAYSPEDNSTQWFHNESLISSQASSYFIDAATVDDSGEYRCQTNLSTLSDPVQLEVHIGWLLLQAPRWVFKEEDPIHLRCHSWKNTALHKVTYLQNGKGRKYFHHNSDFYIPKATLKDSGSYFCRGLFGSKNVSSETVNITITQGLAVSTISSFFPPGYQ

One test concerns the target T1, FcγRIIa R (human FcγRIIa, allotype R, …). Description: SPR (Biacore), relative binding vs GpH7-B3/GpL16-k0. (Surface plasmon resonance follows binding to a sensor surface in real time, without labels.)
For the molecule B1, the Ho/Con_2aR is 90.2 relative, control = 100.
Same read-out and setting: as for B2, the figure is 88.1 relative, control = 100.
Still for that read-out and setting: for B3 the value was 88.9 relative, control = 100.
As for B4, the Ho/Con_2aR was 101 relative, control = 100.
The same measure, in the same setting: for B5 the value was 89.5 relative, control = 100.
The same measure, in the same setting: for B6 the value was 83.1 relative, control = 100; for B7, 84 relative, control = 100; for B8, 90.3 relative, control = 100.
Still for that read-out and setting: as for B9, the figure is 146 relative, control = 100; as for B10, 107 relative, control = 100.
Take B11: the Ho/Con_2aR is 106 relative, control = 100.
The same measure, in the same setting: as for B12, the figure is 93.7 relative, control = 100; as for B13, 94.5 relative, control = 100.
For B14, the Ho/Con_2aR was 87.6 relative, control = 100.

A further test addresses T2, FcγRIIIa extracellular domain with C-terminal His tag (human, UniProt P08637 17-208).
T2 construct: extracellular domain; also called FcgRIIIa; 3a; not shown: His tag at the C terminus
As to the kind of experiment: SPR relative binding; GpH7-A5/GpH7-B3/GpL16-k0 = 100. As for the experimental part:
Analysis of interaction between objective antibody and the FcγR was carried out using Biacore T100 (GE Healthcare). HBS-EP+ (GE Healthcare) was used as the running buffer, and the measurement temperature was set to 25° C. Chips produced by immobilizing the antigen peptide by the amine coupling method to a Series S Sencor Chip CM5 (GE Healthcare), or alternatively, chips produced by allowing preliminarily biotinylated antigen peptides to interact with and immobilize onto a Series S Sensor Chip SA (certified) (GE Healthcare) were used. Antibodies of interest were captured onto an antigen peptide-immobilized chip, and allowed to interact to each FcγR diluted with running buffer. To regenerate and repeatedly use the chip, the antibodies captured on the chip were washed off by reacting 10 mM glycine-HCl, pH 1.5.
The FcγR-binding activity of each antibody was assessed primarily using as an indicator the FcγR-binding activity and dissociation constant for FcγR.
Turning to B15, the He/Con_3a is 155 % of control.
On the same count and under the same terms, as for B16, the figure is 103 % of control; as for B17, 105 % of control; as for B18, 101 % of control.
Still for that read-out and setting: for B19 the value was 103 % of control.
